Patent US10654896B2, “FoxP3-binding peptides and uses thereof” (FUNDACIÓN PARA LA INVESTIGACIÓN MÉDICA APLICADA, priority 2016, dated 2020)
Where a SMILES comes first, the peptide text is derived from it. Where no end group is shown, it is not given here. [ ]: non-standard residue; d: D form.

Each compound was assayed against T1, human FOXP3 (FOXP3-6His) (Homo sapiens, UniProt Q9BZS1) (assay: Peptide binding to FOXP3 by surface plasmon resonance (SPR)). Settings: not given.
T1 construct: 6xHis (C); made in house; host or cells: E. coli BL21 (DE3)
T1 sequence (Q9BZS1 1-431): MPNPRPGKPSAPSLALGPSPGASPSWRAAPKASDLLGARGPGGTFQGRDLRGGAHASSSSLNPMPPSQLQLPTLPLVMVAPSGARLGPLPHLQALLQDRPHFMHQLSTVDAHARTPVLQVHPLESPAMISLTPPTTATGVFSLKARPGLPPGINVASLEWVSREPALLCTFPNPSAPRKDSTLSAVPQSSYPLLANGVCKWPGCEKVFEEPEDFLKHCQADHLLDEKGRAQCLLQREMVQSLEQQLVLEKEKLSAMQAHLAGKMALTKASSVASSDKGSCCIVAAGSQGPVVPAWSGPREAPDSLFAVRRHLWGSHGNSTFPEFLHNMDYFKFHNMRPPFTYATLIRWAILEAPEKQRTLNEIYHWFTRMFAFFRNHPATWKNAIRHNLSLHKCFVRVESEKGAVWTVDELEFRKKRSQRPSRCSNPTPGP
Text: Plasmid pET20b FOXP3-His was generated to produce the human FOXP3 tagged with 6 histidines at the C terminus of the protein. Briefly, plasmid pDEST15-FOXP3 (provided by Dr. Casal, Madrid, Spain) was used as template to amplify FOXP3 by PCR using the primers Upper FOXP3 Ndel catatgcccaaccccaggc (SEQ ID NO: 55) and Lower FOXP3 […] (SEQ ID NO: 56). The resulting fragment was subcloned in pET20b at Ndel and NotI sites. pET45b His-Runx1 was obtained by PCR of activated human CD4 T cells obtained from healthy volunteers (after the signature of an informed consent) using the primers Upper Runx1 atgcgtatccccgtagatg (SEQ ID NO: 57) and Lower Runx1 […] (SEQ ID NO: 58) and the fragment was cloned in pcDNA3.1. Then, pET45b and pcDNA3.1-Runx1 were digested with BamHI and NotI and ligated to obtain pET45b-Runx1. Plasmids were used to transform BL21 cells (DE3; Novagen, Schwalbach, Germany) for the expression of the recombinant protein. The transformed BL21 cells were grown in LB medium at 37° C. (1 liter of final culture medium) (with ampicilin 0.1 mg/ml). Once the OD of the culture was between 0.5 and 1.0, IPTG (0.4 mM, final concentration) was added. Bacteria were then cultured overnight in agitation and centrifuged for 10 min at 8000 rpm. Cell pellet was then resuspended in 4 ml Tris-HCl 0.1 M and frozen at −80° C. Cell pellet was then thawed and incubated with lisozyme (25 KU) and a protease inhibitor cocktail for 15 min at 30° C. before cell lysis induced with a French-press. The resultant pool was then centrifuged during 20 min at 11.000 rpm). The recombinant protein was purified from the soluble fraction of French-press cell extracts by affinity chromatography (Histrap, Pharmacia) following manufacturer's instructions and using an FPLC platform (AKTA, Pharmacia). Plasmid pDEST15-FOXP3 encoding the fusion protein GST-FOXP3 (GST fused to the isoform A from human FOXP3 gene), was transformed into BL21 cells for the expression of the recombinant protein. GST-FOXP3 protein was purified from the soluble fraction of cell extracts obtained, as described above, by affinity chromatography (GSTrap; Amersham, Piscataway, N.J.) using a fast protein liquid chromatography platform (AKTA; Amersham) following manufacturer's instructions. The eluted proteins were desalted using Hitrap desalting columns (Pharmacia) and analyzed by SDS-PAGE using Coomassie blue (Bio-Safe Coomassie reagent; Bio-Rad, Hercules, Calif.) and by Western blot.
Screening of peptide binding to FOXP3 was performed by surface plasmon resonance (SPR) using ProteOn XPR36 (Bio-Rad, Hercules Calif., USA) optical biosensor. Recombinant protein FOXP3-6His was produced and purified from E. coli as disclosed in previous section and was immobilized covalently onto a GLM sensor chip (176-5012, Bio-Rad) using sulfo-NHS and EDC (Bio-Rad) coupling reagents and the manufacturer's instructions. After protein immobilization, chip surface was treated with ethanolamine to deactivate the excess of reactive esters.
Individual solutions of the peptides to be tested (1-20 μM) were injected by triplicate in running buffer (Phosphate buffered saline, 0.005% (v/v) Tween 20, pH 7.4) at a flow of 30 μl/min. The interspot signal (obtained in the chip surface not immobilized with protein) was used as reference. The results are summarized in Table 6 below as the ratio Peptide of the invention/p60.
For “RAFQAFRKMWPFFAM [SEQ ID NO: 42] (H-RAFQAFRKMWPFFAM-OH)”, the “increase in the binding to FoxP3 with respect to p60 (SEQ ID NO: 1)” value was “about 400%”.
In the case of “RDFQSFRKMWPFFAM (cyclo(RDFQSFRKMWPFFAM); also: R1 and R2 form a linker birradical which is -C(=O)-) [SEQ ID NO: 49, head-to-tail cyclic peptide]”, the “increase in the binding to FoxP3 with respect to p60 (SEQ ID NO: 1)” value is reported as “about 500%”.

Same assay, conditions: peptides 1-20 μM; ratio to p60 (SEQ ID NO: 1)
6 (R[dA]FQSFRKMWPFFAM) [compound 6] was tested, and the “Binding to Foxp3 Ratio binding Peptide/p60 (fold change)” value was 3.3 fold change.
7 (RSFQSFRKMWPFFAM) [compound 7] was tested, and the “Binding to Foxp3 Ratio binding Peptide/p60 (fold change)” value was 1.4 fold change.
In the case of 8 (RYFQSFRKMWPFFAM) [compound 8], the “Binding to Foxp3 Ratio binding Peptide/p60 (fold change)” value is reported as 1.4 fold change.
In the case of 11 (RNFQSFRKMWPFFAM) [compound 11], the “Binding to Foxp3 Ratio binding Peptide/p60 (fold change)” value is reported as 1.4 fold change.
12 (RKFQSFRKMWPFFAM) [compound 12] was tested, and the “Binding to Foxp3 Ratio binding Peptide/p60 (fold change)” value was 2.2 fold change.
In the case of 16 (RDWQSFRKMWPFFAM) [compound 16], the “Binding to Foxp3 Ratio binding Peptide/p60 (fold change)” value is reported as 3.7 fold change.
For 17 (RDYQSFRKMWPFFAM) [compound 17], the “Binding to Foxp3 Ratio binding Peptide/p60 (fold change)” value was 3.3 fold change.
With 18 (RDLQSFRKMWPFFAM) [compound 18] the “Binding to Foxp3 Ratio binding Peptide/p60 (fold change)” value was 1.9 fold change.
In the case of 20 (RDFQRFRKMWPFFAM) [compound 20], the “Binding to Foxp3 Ratio binding Peptide/p60 (fold change)” value is reported as 3.7 fold change.
In the case of 21 (RDFQNFRKMWPFFAM) [compound 21], the “Binding to Foxp3 Ratio binding Peptide/p60 (fold change)” value is reported as 3.2 fold change.
22 (RDFQWFRKMWPFFAM) [compound 22] was tested, and the “Binding to Foxp3 Ratio binding Peptide/p60 (fold change)” value was 2.4 fold change.
With 23 (RDFQEFRKMWPFFAM) [compound 23] the “Binding to Foxp3 Ratio binding Peptide/p60 (fold change)” value was 1.3 fold change.
In the case of 24 (RDFQYFRKMWPFFAM) [compound 24], the “Binding to Foxp3 Ratio binding Peptide/p60 (fold change)” value is reported as 4.6 fold change.
For 25 (RDFQKFRKMWPFFAM) [compound 25], the “Binding to Foxp3 Ratio binding Peptide/p60 (fold change)” value was 4.0 fold change.
For 28 (RDFQSFRHMWPFFAM) [compound 28], the “Binding to Foxp3 Ratio binding Peptide/p60 (fold change)” value was 2.6 fold change.
In the case of 29 (RDFQSFRRMWPFFAM) [compound 29], the “Binding to Foxp3 Ratio binding Peptide/p60 (fold change)” value is reported as 1.4 fold change.
For 31 (RDFQSFRKMWRFFAM) [compound 31], the “Binding to Foxp3 Ratio binding Peptide/p60 (fold change)” value was 2.8 fold change.
With 32 (RDFQSFRKMWNFFAM) [compound 32] the “Binding to Foxp3 Ratio binding Peptide/p60 (fold change)” value was 1.4 fold change.
With 33 (RDFQSFRKMWVFFAM) [compound 33] the “Binding to Foxp3 Ratio binding Peptide/p60 (fold change)” value was 1.3 fold change.
In the case of 35 (RDFQSFRKMWYFFAM) [compound 35], the “Binding to Foxp3 Ratio binding Peptide/p60 (fold change)” value is reported as 1.3 fold change.
For 37 (RDFQSFRKMWKFFAM) [compound 37], the “Binding to Foxp3 Ratio binding Peptide/p60 (fold change)” value was 4.1 fold change.
“38 (RDFQSFRKMWAFFA[dM]-NH2; not fully specified (N-terminus)) [compound 38]” was tested, and the “Binding to Foxp3 Ratio binding Peptide/p60 (fold change)” value was 1.1 fold change.
With “39 (RDFQ[dA]FRKMWPFFAM-NH2; not fully specified (N-terminus)) [compound 39]” the “Binding to Foxp3 Ratio binding Peptide/p60 (fold change)” value was 3.3 fold change.
“40 (RDFQSFRKMW[dA]FFAM-NH2; not fully specified (N-terminus)) [compound 40]” was tested, and the “Binding to Foxp3 Ratio binding Peptide/p60 (fold change)” value was 2.2 fold change.
For 42 (H-RAFQAFRKMWPFFAM-OH) [compound 42], the “Binding to Foxp3 Ratio binding Peptide/p60 (fold change)” value was 4.1 fold change.
In the case of “43 (R[dA]FQ[dA]FRKMWPFFAM-NH2; not fully specified (N-terminus)) [compound 43]”, the “Binding to Foxp3 Ratio binding Peptide/p60 (fold change)” value is reported as 4.9 fold change.
“44 (RAFQSFRKMWAFFAM-NH2; not fully specified (N-terminus)) [compound 44]” was tested, and the “Binding to Foxp3 Ratio binding Peptide/p60 (fold change)” value was 3.0 fold change.
In the case of “49 (cyclo(RDFQSFRKMWPFFAM); also: R1 and R2 form a linker birradical which is -C(=O)-) [compound 49]”, the “Binding to Foxp3 Ratio binding Peptide/p60 (fold change)” value is reported as 5.0 fold change.
For `CSCC[C@H](NC(=O)[C@H](C)NC(=O)[C@H](Cc1ccccc1)NC(=O)[C@H](Cc1ccccc1)NC(=O)[C@@H]1CCCN1C(=O)[C@H](Cc1c[nH]c2ccccc12)NC(=O)[C@H](CCSC)NC(=O)[C@H](CCCCN)NC(=O)[C@H](CCCNC(=N)N)NC(=O)[C@H](Cc1ccccc1)NC(=O)[C@H](CO)NC(=O)[C@H](CCC(N)=O)NC(=O)[C@H](Cc1ccccc1)NC(=O)[C@@H](CC(=O)O)NC(=O)[C@H](CCCNC(=N)N)NC(=O)CNC(C)=O)C(N)=O` [compound 4] (Ac-GR[dD]FQSFRKMWPFFAM-NH2; C-terminus assumed), the “Binding to Foxp3 Ratio binding Peptide/p60 (fold change)” value was 4.2 fold change.
“Ac-GRAFQSFRKMWPFFAM-NH2 (C-terminus assumed) [compound 13]” was tested, and the “Binding to Foxp3 Ratio binding Peptide/p60 (fold change)” value was 3.2 fold change.
